Results as given in patent US20050222387A1, “Smac-peptides as therapeutics against cancer and autoimmune diseases” (Deutsches Krebsforschungzentrum Stiftung Des Oeffentlichen …, priority 2002, published 2005).

Assay: Neurotoxicity by compound neurological score in the glioblastoma model
Format: in vivo, athymic mice
Details: TRAIL alone, local administration
Description: Animal studies. 5×10^4 U87MG human glioblastoma cells were stereotactically implanted into the right striatum of athymic mice (CD1 nu/nu, Charles River, Sulzfeld, Germany). At day 7 or at day 7 and day 9, mice were locally treated with Apo2L/TRAIL (2 μg/4 μl buffer) and/or Smac (1 mg/4 μl buffer) or buffer only. Tumor cell volumes were measured at day 21 or 35 after tumor cell implantation as previously described. Neurological symptoms (alertness, behaviour, weight loss, focal neurological deficits) were evaluated daily and a compound score of all categories was formed (++: severe deficits, +: deficits, −: no relevant deficits). Statistical significance was assessed using ANOVA.

Substance: TRAIL: TNF-related apoptosis inducing ligand, death receptor ligand; recombinant human TRAIL (PeproTech)
- mice that developed neurological deficits: 2 of 6
